{"source": "patent US20190352376A1", "binders": {"B1": {"name": "F211-11H12 (antibody, V domains shown)", "VL": "DIVMSQSPSSLAVSVGEKVTMSCKSSQSLLNSRNQKNHLAWYQQKPGQSPKLLIYWASTRESGVPDRFTGDGSGTDFTLTISSVKAEDLAVYYCQQYYTYRTFGGGTKLEIK", "VH": "DVQLQESGPGLVKPSQSLSLTCSVTGYSITSDYYWNWIRQFPGNKLEWMAYIGYDGTKNYNPSLKNRISITRDTSKNQFFLKLNSVTTDDTATYYCTRDRANWDDYFDYWGQGTTLTVSS"}}, "molecular_target": "peptide-conjugate (Example 1; lactosyl-Ser-…-Cys coupled to KLH) (influenza virus)", "note": "“And” between values parts separate entries of the source, which are not always exact repeats. Identical values can stand only once."}
{"binder": "B1", "values": [{"measurement": "EC50 (read off the curve)", "result": "0.03 µg/mL and 0.02 µg/mL"}]}
